These results are taken from publication PMC10786891, “Massively parallel profiling of RNA-targeting CRISPR-Cas13d”.

B1: target 1 insA 3' of 19,insG 3' of 6 (mixed)
RNA 1: CACCCGUGCAAAAAUGCAGGGGUCUAAAACUGAGCGGAUAACCUCUCUAUGG
RNA 2: GGGAAUGGAUCCACAUCUACGAAUUCGUACCAUAAGAGAGGUUAUCCGGCUCACCGAGAUCGGAAGAGCACACGU
B2: target 1 MT 5'PFS GGG 3'PFS GCU (mixed)
RNA 1: CACCCGUGCAAAAAUGCAGGGGUCUAAAACUGAGCGGAUAACCUCUCUAUGG
RNA 2: GGGAAUGGAUCCACAUCUACGAAUUCGGGCCAUAGAGAGGUUAUCCGCUCAGCUAGAUCGGAAGAGCACACGU
B3: target 1 MT 5'PFS CAA 3'PFS ACU (mixed)
RNA 1: CACCCGUGCAAAAAUGCAGGGGUCUAAAACUGAGCGGAUAACCUCUCUAUGG
RNA 2: GGGAAUGGAUCCACAUCUACGAAUUCCAACCAUAGAGAGGUUAUCCGCUCAACUAGAUCGGAAGAGCACACGU
B4: target 1 C6U,C7U (mixed)
RNA 1: CACCCGUGCAAAAAUGCAGGGGUCUAAAACUGAGCGGAUAACCUCUCUAUGG
RNA 2: GGGAAUGGAUCCACAUCUACGAAUUCGUACCAUAGAGAGGUUAUUUGCUCACCGAGAUCGGAAGAGCACACGU
B5: target 1 MT 5'PFS UCG 3'PFS AGU (mixed)
RNA 1: CACCCGUGCAAAAAUGCAGGGGUCUAAAACUGAGCGGAUAACCUCUCUAUGG
RNA 2: GGGAAUGGAUCCACAUCUACGAAUUCUCGCCAUAGAGAGGUUAUCCGCUCAAGUAGAUCGGAAGAGCACACGU
B6: target 1 MT 5'PFS CAA 3'PFS ACG (mixed)
RNA 1: CACCCGUGCAAAAAUGCAGGGGUCUAAAACUGAGCGGAUAACCUCUCUAUGG
RNA 2: GGGAAUGGAUCCACAUCUACGAAUUCCAACCAUAGAGAGGUUAUCCGCUCAACGAGAUCGGAAGAGCACACGU
B7: target 1 MT 5'PFS ACA 3'PFS UAC (mixed)
RNA 1: CACCCGUGCAAAAAUGCAGGGGUCUAAAACUGAGCGGAUAACCUCUCUAUGG
RNA 2: GGGAAUGGAUCCACAUCUACGAAUUCACACCAUAGAGAGGUUAUCCGCUCAUACAGAUCGGAAGAGCACACGU
B8: target 1 MT 5'PFS GUU 3'PFS CUU (mixed)
RNA 1: CACCCGUGCAAAAAUGCAGGGGUCUAAAACUGAGCGGAUAACCUCUCUAUGG
RNA 2: GGGAAUGGAUCCACAUCUACGAAUUCGUUCCAUAGAGAGGUUAUCCGCUCACUUAGAUCGGAAGAGCACACGU
B9: target 1 MT 5'PFS GUU 3'PFS CUG (mixed)
RNA 1: CACCCGUGCAAAAAUGCAGGGGUCUAAAACUGAGCGGAUAACCUCUCUAUGG
RNA 2: GGGAAUGGAUCCACAUCUACGAAUUCGUUCCAUAGAGAGGUUAUCCGCUCACUGAGAUCGGAAGAGCACACGU
B10: target 1 C2G,G13C (mixed)
RNA 1: CACCCGUGCAAAAAUGCAGGGGUCUAAAACUGAGCGGAUAACCUCUCUAUGG
RNA 2: GGGAAUGGAUCCACAUCUACGAAUUCGUACCAUAGAGACGUUAUCCGCUGACCGAGAUCGGAAGAGCACACGU
B11: target 1 MT 5'PFS AGA 3'PFS UCU (mixed)
RNA 1: CACCCGUGCAAAAAUGCAGGGGUCUAAAACUGAGCGGAUAACCUCUCUAUGG
RNA 2: GGGAAUGGAUCCACAUCUACGAAUUCAGACCAUAGAGAGGUUAUCCGCUCAUCUAGAUCGGAAGAGCACACGU
B12: target 1 MT 5'PFS UGC 3'PFS AAG (mixed)
RNA 1: CACCCGUGCAAAAAUGCAGGGGUCUAAAACUGAGCGGAUAACCUCUCUAUGG
RNA 2: GGGAAUGGAUCCACAUCUACGAAUUCUGCCCAUAGAGAGGUUAUCCGCUCAAAGAGAUCGGAAGAGCACACGU
B13: target 1 MT 5'PFS GUU 3'PFS CUA (mixed)
RNA 1: CACCCGUGCAAAAAUGCAGGGGUCUAAAACUGAGCGGAUAACCUCUCUAUGG
RNA 2: GGGAAUGGAUCCACAUCUACGAAUUCGUUCCAUAGAGAGGUUAUCCGCUCACUAAGAUCGGAAGAGCACACGU
B14: target 1 MT 5'PFS UCG 3'PFS CGU (mixed)
RNA 1: CACCCGUGCAAAAAUGCAGGGGUCUAAAACUGAGCGGAUAACCUCUCUAUGG
RNA 2: GGGAAUGGAUCCACAUCUACGAAUUCUCGCCAUAGAGAGGUUAUCCGCUCACGUAGAUCGGAAGAGCACACGU
B15: target 1 MT 5'PFS AGA 3'PFS ACG (mixed)
RNA 1: CACCCGUGCAAAAAUGCAGGGGUCUAAAACUGAGCGGAUAACCUCUCUAUGG
RNA 2: GGGAAUGGAUCCACAUCUACGAAUUCAGACCAUAGAGAGGUUAUCCGCUCAACGAGAUCGGAAGAGCACACGU
B16: target 1 MT 5'PFS GUU 3'PFS CUC (mixed)
RNA 1: CACCCGUGCAAAAAUGCAGGGGUCUAAAACUGAGCGGAUAACCUCUCUAUGG
RNA 2: GGGAAUGGAUCCACAUCUACGAAUUCGUUCCAUAGAGAGGUUAUCCGCUCACUCAGAUCGGAAGAGCACACGU
B17: target 1 MT 5'PFS AGA 3'PFS ACA (mixed)
RNA 1: CACCCGUGCAAAAAUGCAGGGGUCUAAAACUGAGCGGAUAACCUCUCUAUGG
RNA 2: GGGAAUGGAUCCACAUCUACGAAUUCAGACCAUAGAGAGGUUAUCCGCUCAACAAGAUCGGAAGAGCACACGU
B18: target 1 MT 5'PFS ACG 3'PFS CAC (mixed)
RNA 1: CACCCGUGCAAAAAUGCAGGGGUCUAAAACUGAGCGGAUAACCUCUCUAUGG
RNA 2: GGGAAUGGAUCCACAUCUACGAAUUCACGCCAUAGAGAGGUUAUCCGCUCACACAGAUCGGAAGAGCACACGU
B19: target 1 MT 5'PFS AGA 3'PFS UCC (mixed)
RNA 1: CACCCGUGCAAAAAUGCAGGGGUCUAAAACUGAGCGGAUAACCUCUCUAUGG
RNA 2: GGGAAUGGAUCCACAUCUACGAAUUCAGACCAUAGAGAGGUUAUCCGCUCAUCCAGAUCGGAAGAGCACACGU
B20: target 1 MT 5'PFS UCG 3'PFS AGA (mixed)
RNA 1: CACCCGUGCAAAAAUGCAGGGGUCUAAAACUGAGCGGAUAACCUCUCUAUGG
RNA 2: GGGAAUGGAUCCACAUCUACGAAUUCUCGCCAUAGAGAGGUUAUCCGCUCAAGAAGAUCGGAAGAGCACACGU
B21: target 1 MT 5'PFS AGA 3'PFS UCG (mixed)
RNA 1: CACCCGUGCAAAAAUGCAGGGGUCUAAAACUGAGCGGAUAACCUCUCUAUGG
RNA 2: GGGAAUGGAUCCACAUCUACGAAUUCAGACCAUAGAGAGGUUAUCCGCUCAUCGAGAUCGGAAGAGCACACGU
B22: target 1 insA 3' of 17,insC 3' of 9 (mixed)
RNA 1: CACCCGUGCAAAAAUGCAGGGGUCUAAAACUGAGCGGAUAACCUCUCUAUGG
RNA 2: GGGAAUGGAUCCACAUCUACGAAUUCGUACCAUAGAAGAGGUUACUCCGCUCACCGAGAUCGGAAGAGCACACGU
B23: target 1 MT 5'PFS GUG 3'PFS GCG (mixed)
RNA 1: CACCCGUGCAAAAAUGCAGGGGUCUAAAACUGAGCGGAUAACCUCUCUAUGG
RNA 2: GGGAAUGGAUCCACAUCUACGAAUUCGUGCCAUAGAGAGGUUAUCCGCUCAGCGAGAUCGGAAGAGCACACGU
B24: target 1 MT 5'PFS GUG 3'PFS GCC (mixed)
RNA 1: CACCCGUGCAAAAAUGCAGGGGUCUAAAACUGAGCGGAUAACCUCUCUAUGG
RNA 2: GGGAAUGGAUCCACAUCUACGAAUUCGUGCCAUAGAGAGGUUAUCCGCUCAGCCAGAUCGGAAGAGCACACGU
B25: target 1 MT 5'PFS AGA 3'PFS UCA (mixed)
RNA 1: CACCCGUGCAAAAAUGCAGGGGUCUAAAACUGAGCGGAUAACCUCUCUAUGG
RNA 2: GGGAAUGGAUCCACAUCUACGAAUUCAGACCAUAGAGAGGUUAUCCGCUCAUCAAGAUCGGAAGAGCACACGU
B26: target 1 MT 5'PFS AGA 3'PFS ACC (mixed)
RNA 1: CACCCGUGCAAAAAUGCAGGGGUCUAAAACUGAGCGGAUAACCUCUCUAUGG
RNA 2: GGGAAUGGAUCCACAUCUACGAAUUCAGACCAUAGAGAGGUUAUCCGCUCAACCAGAUCGGAAGAGCACACGU
B27: target 1 MT 5'PFS CCA 3'PFS CUA (mixed)
RNA 1: CACCCGUGCAAAAAUGCAGGGGUCUAAAACUGAGCGGAUAACCUCUCUAUGG
RNA 2: GGGAAUGGAUCCACAUCUACGAAUUCCCACCAUAGAGAGGUUAUCCGCUCACUAAGAUCGGAAGAGCACACGU

The data set has as its target T1, EsCas13d, nuclease-dead (Eubacterium siraeum, UniProt B0MS50, R295A;H300A;R849A;H854A).
T1 sequence: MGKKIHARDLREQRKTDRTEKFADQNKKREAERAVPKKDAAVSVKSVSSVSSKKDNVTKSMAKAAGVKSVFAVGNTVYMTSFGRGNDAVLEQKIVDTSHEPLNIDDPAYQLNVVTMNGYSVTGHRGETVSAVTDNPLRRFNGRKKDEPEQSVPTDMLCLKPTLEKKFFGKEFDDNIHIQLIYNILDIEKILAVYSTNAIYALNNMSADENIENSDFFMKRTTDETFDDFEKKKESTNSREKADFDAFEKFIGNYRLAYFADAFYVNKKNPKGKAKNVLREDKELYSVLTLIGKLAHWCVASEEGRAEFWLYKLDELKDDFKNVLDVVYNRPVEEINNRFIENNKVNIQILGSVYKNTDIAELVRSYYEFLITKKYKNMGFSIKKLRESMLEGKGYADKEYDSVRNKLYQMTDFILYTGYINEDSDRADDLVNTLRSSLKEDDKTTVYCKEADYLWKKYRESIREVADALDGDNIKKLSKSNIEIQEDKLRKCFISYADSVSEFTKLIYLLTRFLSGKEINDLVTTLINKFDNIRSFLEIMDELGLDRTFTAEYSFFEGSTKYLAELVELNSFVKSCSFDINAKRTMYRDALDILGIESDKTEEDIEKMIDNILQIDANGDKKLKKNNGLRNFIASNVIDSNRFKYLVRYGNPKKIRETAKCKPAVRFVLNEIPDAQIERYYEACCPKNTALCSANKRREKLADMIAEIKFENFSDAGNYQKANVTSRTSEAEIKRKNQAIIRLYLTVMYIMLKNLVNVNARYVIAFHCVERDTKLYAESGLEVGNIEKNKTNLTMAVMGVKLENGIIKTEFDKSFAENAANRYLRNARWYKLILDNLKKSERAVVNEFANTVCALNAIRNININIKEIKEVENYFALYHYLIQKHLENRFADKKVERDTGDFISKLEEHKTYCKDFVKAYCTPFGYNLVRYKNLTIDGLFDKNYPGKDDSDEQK
Description: crRNA (strand 1, pre-loaded); Mg2+; 40 mM Tris-HCl pH 7.5, 150 mM NaCl, 6 mM MgCl2, 1 mM DTT, 0.1% Tween-20, 0.2 mg/ml BSA; 25 C; 10 min per concentration, then washed. The conditions noted are these: tags: His6-TwinStrep-SUMO cleaved; N-terminal SNAP kept (SNAP-Surface 488); label: 3' end held by stalled T7 RNA polymerase.
In the case of B1, binding was put at a Kd of 25.7 ± 2.3 nM.
Molecule B2 had a Kd of 7.45 ± 1.45 nM.
The value for B3 was approximately 20.5 nM; that for B4 was 6.3 ± 0.5 nM.
The molecule B5 came in with a Kd of 50 ± 24.5 nM.
For B6 the value was 15 ± 5.5 nM; for B7, 25.5 ± 11 nM.
For B8 the value was 16.4 ± 3.1 nM.
B9 yielded a Kd of 12.8 ± 1.4 nM.
For B10 the value was 47 ± 3.5 nM; for B11, 42 ± 15.5 nM.
For B12 the value was 76 ± 33.5 nM; for B13, 17.6 ± 3.25 nM; for B14, approximately 100 nM.
Molecule B15 gave a Kd of 29.5 ± 7 nM.
The value for B16 was 21.5 ± 4 nM; that for B17 was 56 ± 18 nM; that for B18 was approximately 36 nM.
For B19 the value was 49.5 ± 19 nM; for B20, 39 ± 11 nM.
For B21 the value was 47 ± 17.5 nM; for B22, 12.3 ± 0.6 nM; for B23, 14.4 ± 2 nM.
In the case of B24, the Kd turned out to be 12.7 ± 1.6 nM.
For B25 the value was 61 ± 23 nM.
The value for B26 was 47 ± 16 nM; that for B27 was 2.5 ± 0.8 nM.

One may read the Kd as the equilibrium constant for the complex coming apart. Low readings indicate tighter binding, high ones weaker binding.
